Data: patent US20220064286A1 (Genentech, published 2022)
Where a chain is given by its changes, count along the chain named. Numbers in names are those of the source.

T1: hTIGIT mutant Q53A (human, UniProt Q495A1)
T1 sequence (TIGIT, looked up): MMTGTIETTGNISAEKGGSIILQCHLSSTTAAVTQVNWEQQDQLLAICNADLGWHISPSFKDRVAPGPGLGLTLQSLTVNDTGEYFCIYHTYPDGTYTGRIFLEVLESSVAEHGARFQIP

T2: hTIGIT mutant L73A (human, UniProt Q495A1)
T2 sequence (TIGIT, looked up): T1 sequence (TIGIT, looked up) with A32Q, L52A

T3: hTIGIT mutant Y113A (human, UniProt Q495A1)
T3 sequence (TIGIT, looked up): T1 sequence (TIGIT, looked up) with A32Q, Y92A

T4: mu TIGIT (target named for 10A7 in the heads of Tables 6 and 7) (mu (mouse), UniProt P86176 29-249, limits assumed)
T4 construct: Only the column head says mu TIGIT; the text describes no mouse TIGIT cells
T4 sequence (looked up): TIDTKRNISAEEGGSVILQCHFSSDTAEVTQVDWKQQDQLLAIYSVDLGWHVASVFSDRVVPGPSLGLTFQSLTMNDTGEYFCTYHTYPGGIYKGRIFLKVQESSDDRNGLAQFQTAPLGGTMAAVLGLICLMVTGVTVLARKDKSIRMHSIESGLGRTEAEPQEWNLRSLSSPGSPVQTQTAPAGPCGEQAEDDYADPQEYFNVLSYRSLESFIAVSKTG

T5: human TIGIT protein (human, UniProt Q495A1 22-141, limits assumed)
T5 construct: Recombinant protein (Genentech) used in ELISA screening and as SPR analyte; also called TIGIT antigen
T5 sequence: T1 sequence (TIGIT, looked up) with A32Q

T6: human TIGIT-AviFlag-biotin (human, UniProt Q495A1 22-141, biotin)
T6 sequence: T1 sequence (TIGIT, looked up) with A32Q

T7: full-length human TIGIT on CHO cells (human, UniProt Q495A1 22-244)
T7 construct: also called CHO-hTIGIT; hu TIGIT
T7 sequence: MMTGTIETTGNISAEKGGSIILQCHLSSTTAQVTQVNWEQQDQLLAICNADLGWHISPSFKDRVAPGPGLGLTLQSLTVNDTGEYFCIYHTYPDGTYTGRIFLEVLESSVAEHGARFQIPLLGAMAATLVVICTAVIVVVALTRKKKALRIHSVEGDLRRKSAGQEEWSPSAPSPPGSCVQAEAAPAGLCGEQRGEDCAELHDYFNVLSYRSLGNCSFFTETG

B1: 10A7 (antibody, V domains shown)
VH: EVQLVESGGGLTQPGKSLKLSCEASGFTFSSFTMHWVRQSPGKGLEWVAFIRSGSGIVFYADAVRGRFTISRDNAKNLLFLQMNDLKSEDTAMYYCARRPLGHNTFDSWGQGTLVTVSS
VL: DIVMTQSPSSLAVSPGEKVTMTCKSSQSLYYSGVKENLLAWYQQKPGQSPKLLIYYASIRFTGVPDRFTGSGSGTDYTLTITSVQAEDMGQYFCQQGINNPLTFGDGTKLEIKR
B2: 4.1D3 (antibody, V domains shown)
VH: QVQLQQSGPGLVKPSQTLSLTCAISGDSVSSNSAAWNWIRQSPSRGLEWLGKTYYRFKWYSDYAVSVKGRITINPDTSKNQFSLQLNSVTPEDTAVFYCTRESTTYDLLAGPFDYWGQGTLVTVSS
VL: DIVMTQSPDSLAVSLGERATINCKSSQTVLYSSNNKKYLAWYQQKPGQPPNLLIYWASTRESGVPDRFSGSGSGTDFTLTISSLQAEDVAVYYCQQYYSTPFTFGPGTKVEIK
notes: OMT rat-derived human antibody; also called 4.1D3.Q1
B3: 4.1D3.Q1E (antibody, V domains shown)
VH: B2 VH with Q1E
VL: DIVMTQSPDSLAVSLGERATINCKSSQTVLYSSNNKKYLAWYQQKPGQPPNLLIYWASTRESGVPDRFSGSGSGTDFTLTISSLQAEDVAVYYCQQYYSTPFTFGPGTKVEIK
B4: 7.4A3.C96S.Q1E (antibody, V domains shown)
VH: EVQLVQSGSDLKKPGASVRVSCKASGYTFTSYPMNWVRQAPGHGLEWMGWINTNTGNPTYVQGFTGRFVFSLDTSVNTAYLQISSLKAEDTAVYFCARTGGHTYDSYAFDVWGQGTMVTVSS
VL: DIQLTQSPTFLSASVGDRVTITCRASQVISSSLAWYQQNPGKAPKLLIYAASTLQSGVPSRFSGSGSGTEFTLTISSLQPEDFVTYYCQHLHGYPSNFGQGTKVEIK
notes: also called 7.4A3.Q1E.C96S

Legend:
hTIGIT mutant Q53A [1] = biological target: T1, hTIGIT mutant Q53A; test: SPR (BIACORE) KD normalized to WT, N=2
hTIGIT mutant L73A = biological target: T2, hTIGIT mutant L73A; test: SPR (BIACORE), N=2
hTIGIT mutant Q53A [2] = biological target: T1, hTIGIT mutant Q53A; test: SPR (BIACORE), N=2
hTIGIT mutant Y113A = biological target: T3, hTIGIT mutant Y113A; test: SPR (BIACORE), N=2
[3] = biological target: T4, mu TIGIT (target named for 10A7 in the …); test: FACS, CHO cells expressing TIGIT
[4] = biological target: T4, mu TIGIT (target named for 10A7 in the …); test: TR-FRET, TIGIT with ST-CD226 on CHO cells; competitor CD226
human TIGIT protein = biological target: T5, human TIGIT protein; test: SPR (BIACORE), N=2
[5] = biological target: T6, human TIGIT-AviFlag-biotin; test: Block ELISA Human PVR-Fc:Bio-TIGIT-AviFlag (blocked ligand human PVR-Fc)
Experimental: To test for the ability of the clones to block the TIGIT-PVR interaction, a blocking ELISA assay was used. Briefly, recombinant human PVR-Fc fusion protein, cynomolgus monkey PVR-Fc fusion protein, or mouse PVR-Fc fusion protein was coated at 4 μg/ml at 25 μl/well in phosphate-buffered saline (PBS, pH 7.0) onto 384-well Maxisorp microtiter plates (NUNC, Denmark) and incubated overnight at 4° C. The coating solution was then discarded and the plate was blocked using 0.5% bovine serum albumin (BSA) in PBS at 80 μl/well and incubated with gentle agitation for 1 hour. Titration curves of anti-TIGIT and Fab isotype control antibodies were diluted in assay buffer (PBS, 0.5% BSA, 0.05% Tween 20) using 12 serial 2.5-fold dilutions (40000-1.7 ng/mL). […] The plate was then washed 6× with wash buffer and bound human TIGIT-AviFlag-biotin, cyno TIGIT-AviFlag-biotin, or mouse TIGIT-His was detected by adding 25 μl/well of horseradish peroxidase-conjugated streptavidin (1:10000, Amersham, UK) or horseradish peroxidase-conjugated mouse anti-His (1:2500, Qiagen, Germany) diluted in assay buffer. […] Absorbance was read at 450 nm on a […] ASCENT® microtiter plate reader (Thermo Labsystems, Helsinki, Finland). Fit curves were plotted from the resulting optical density values from the ELISA plates and IC50s were calculated using Genedata Screener software (Genedata, Switzerland).

[6] = biological target: T7, full-length human TIGIT on CHO cells; test: FACS, PVR-Fc on CHO-TIGIT cells; competitor PVR-Fc
Experimental: These studies were further validated in CHO-TIGIT PVR blocking experiments in which TIGIT-expressing CHO cells were incubated with labeled PVR-Fc fusion protein in the presence of anti-TIGIT antibody or an human IgG1 control (FIG. 4A).

Row | Binder | Binding affinity drop vs. WT (hTIGIT mutant Q53A [1]) [fold] | Kd (hTIGIT mutant L73A) [nM] | Kd (hTIGIT mutant Q53A [2]) [nM] | Kd (hTIGIT mutant Y113A) [nM] | EC50 [3] [nM] | IC50 [4] [nM] | Kd (human TIGIT protein) [nM] | IC50 [5] [nM] | IC50 [6] [nM]
1 | B1 | 0.7 | > 500 | 32 | 55.5 | 0.54 | 17.6 |  |  | 
2 | B2 | 1.6 | 1.3 | 0.8 | 2.8 |  |  | 0.5 |  | 
3 | B3 |  |  |  |  |  |  |  | 6.9 | 0.29
4 | B4 |  |  |  |  |  |  | 1.8 |  | 0.38
